# Assay results published in IntAct's records for PubMed 29892012.
# B1: Coiled-coil domain-containing protein 120 (Homo sapiens), Q96HB5-4 (parent)
# chain: MRREPRYQGQVGPDIHTDSERTLSSHQPRPLDSTKMEVKGQLISSPTFNAPAALFGEAAPQVKSERLRGLLDRQRTLQEALSLKLQELRKVCLQEAELTGQLPPECPLEPGERPQLVRRRPPTARAYPPPHPNQAHHSLCPAEELALEALEREVSVQQQIAAAARRLALAPDLSTEQRRRRRQVQADALRRLHELEEQLRDVRARLGLPVLPLPQPLPLSTGSVITTQGVCLGMRLAQLSQEDVVLHSESSSLSESGASHDNEEPHGCFSLAERPSPPKAWDQLRAVSGGSPERRTPWKPPPSDLYGDLKSRRNSVASPTSPTRSLPRSASSFEGRSVPATPVLTRGAGPQLCKPEGLHSRQWSGSQDSQMGFPRADPASDRASLFVARTRRSNSSEALLVDRAAGGGAGSPPAPLAPSASGPPVCKSSEVLYERPQPTPAFSSRTAGPPDPPRAARPSSAAPASRGAPRLPPVCGDFLLDYSLDRGLPRSGGGTGWGELPPAAEVPGPLSRRDGLLTMLPGPPPVYAADSNSPLLRTKDPHTRATRTKPCGLPPEAAEGPEVHPNPLLWMPPPTRIPSAGERSGHKNLALEGLRDWYIRNSGLAAGPQRRPVLPSVGPPHPPFLHARCYEVGQALYGAPSQAPLPHSRSFTAPPVSGRYYADFLYPPELSARLSDLTLEGEQSSSSDTQTPGTLV
# B2: Alpha-ketoglutarate-dependent dioxygenase alkB homolog 3 (Homo sapiens), Q96Q83 (parent)
# chain: MEEKRRRARVQGAWAAPVKSQAIAQPATTAKSHLHQKPGQTWKNKEHHLSDREFVFKEPQQVVRRAPEPRVIDREGVYEISLSPTGVSRVCLYPGFVDVKEADWILEQLCQDVPWKQRTGIREDITYQQPRLTAWYGELPYTYSRITMEPNPHWHPVLRTLKNRIEENTGHTFNSLLCNLYRNEKDSVDWHSDDEPSLGRCPIIASLSFGATRTFEMRKKPPPEENGDYTYVERVKIPLDHGTLLIMEGATQADWQHRVPKEYHSREPRVNLTFRTVYPDPRGAPW
# partner: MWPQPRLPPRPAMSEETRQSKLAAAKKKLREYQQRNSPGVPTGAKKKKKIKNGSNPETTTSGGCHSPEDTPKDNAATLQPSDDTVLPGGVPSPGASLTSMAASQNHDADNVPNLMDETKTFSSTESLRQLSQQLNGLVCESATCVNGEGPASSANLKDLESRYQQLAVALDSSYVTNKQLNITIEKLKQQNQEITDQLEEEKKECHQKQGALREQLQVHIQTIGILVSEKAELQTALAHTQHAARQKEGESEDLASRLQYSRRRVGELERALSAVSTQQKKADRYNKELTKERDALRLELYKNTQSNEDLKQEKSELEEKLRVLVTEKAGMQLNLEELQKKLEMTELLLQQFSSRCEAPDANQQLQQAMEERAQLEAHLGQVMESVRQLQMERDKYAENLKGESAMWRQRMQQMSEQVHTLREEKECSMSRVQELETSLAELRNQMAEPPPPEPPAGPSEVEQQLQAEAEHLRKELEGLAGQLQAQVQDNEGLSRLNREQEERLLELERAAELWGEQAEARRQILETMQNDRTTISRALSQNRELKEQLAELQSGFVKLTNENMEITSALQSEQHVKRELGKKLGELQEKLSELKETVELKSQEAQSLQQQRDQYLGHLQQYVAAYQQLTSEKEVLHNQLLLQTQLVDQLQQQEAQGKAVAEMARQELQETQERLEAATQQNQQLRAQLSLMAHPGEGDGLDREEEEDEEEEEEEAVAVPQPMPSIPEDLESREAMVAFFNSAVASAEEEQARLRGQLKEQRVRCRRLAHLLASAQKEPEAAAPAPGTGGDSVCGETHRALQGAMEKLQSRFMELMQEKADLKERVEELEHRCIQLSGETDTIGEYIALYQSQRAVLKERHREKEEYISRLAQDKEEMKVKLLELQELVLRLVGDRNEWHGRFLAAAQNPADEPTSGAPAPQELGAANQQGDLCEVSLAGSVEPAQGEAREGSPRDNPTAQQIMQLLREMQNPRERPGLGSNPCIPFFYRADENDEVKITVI
# B3: Atos homolog protein B (Homo sapiens), Q7L5A3 (parent)
# chain: MRHVQAEPSPSSEPEAGPSQPPVRQGALQGGLLMGYSPAGGATSPGVYQVSIFSPPAGTSEPHRALKRQAPSTEGPRELKRGPGLGAREGLPPEEPSTVGLLGPEGPGLGLGVASQHFSHRGLCVVEQRSSVTSSWTSGAWSPPCPPSNASCNTLHTRDWASPDPGGQGSLGESPGPAPPGQLHTLDTDLHSLAQIGGKSPVAGVGNGGSLWPRESPGTANGHSPEHTPPGPGPPGPCPTKRRLLPAGEAPDVSSEEEGPAPRRRRGSLGHPTAANSSDAKATPFWSHLLPGPKEPVLDPTDCGPMGRRLKGARRLKLSPLRSLRKGPGLLSPPSASPVPTPAVSRTLLGNFEESLLRGRFAPSGHIEGFTAEIGASGSYCPQHVTLPVTVTFFDVSEQNAPAPFLGIVDLNPLGRKGYSVPKVGTVQVTLFNPNQTVVKMFLVTFDFSDMPAAHMTFLRHRLFLVPVGEEGNANPTHRLLCYLLHLRFRSSRSGRLSLHGDIRLLFSRRSLELDTGLPYELQAVTEAPHNPRYSPLP
# partner: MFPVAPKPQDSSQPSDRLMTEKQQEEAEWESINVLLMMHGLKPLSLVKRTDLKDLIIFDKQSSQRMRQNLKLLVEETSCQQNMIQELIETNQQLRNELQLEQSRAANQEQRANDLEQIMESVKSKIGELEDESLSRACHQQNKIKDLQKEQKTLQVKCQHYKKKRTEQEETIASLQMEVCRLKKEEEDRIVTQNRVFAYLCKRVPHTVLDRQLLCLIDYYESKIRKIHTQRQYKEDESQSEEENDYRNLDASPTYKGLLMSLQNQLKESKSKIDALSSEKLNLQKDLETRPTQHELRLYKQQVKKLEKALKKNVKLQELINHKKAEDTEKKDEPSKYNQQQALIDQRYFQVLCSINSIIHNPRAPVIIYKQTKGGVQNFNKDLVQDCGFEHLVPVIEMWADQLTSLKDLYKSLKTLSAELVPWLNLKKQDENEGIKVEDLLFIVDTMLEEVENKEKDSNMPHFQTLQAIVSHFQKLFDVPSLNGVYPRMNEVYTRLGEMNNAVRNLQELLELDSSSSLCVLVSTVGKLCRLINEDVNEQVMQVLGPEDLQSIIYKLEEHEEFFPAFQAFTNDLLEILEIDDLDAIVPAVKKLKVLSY
# B4: Coiled-coil domain-containing protein 120 (Homo sapiens), Q96HB5-4 (parent)
# chain: B1 chain
# partner: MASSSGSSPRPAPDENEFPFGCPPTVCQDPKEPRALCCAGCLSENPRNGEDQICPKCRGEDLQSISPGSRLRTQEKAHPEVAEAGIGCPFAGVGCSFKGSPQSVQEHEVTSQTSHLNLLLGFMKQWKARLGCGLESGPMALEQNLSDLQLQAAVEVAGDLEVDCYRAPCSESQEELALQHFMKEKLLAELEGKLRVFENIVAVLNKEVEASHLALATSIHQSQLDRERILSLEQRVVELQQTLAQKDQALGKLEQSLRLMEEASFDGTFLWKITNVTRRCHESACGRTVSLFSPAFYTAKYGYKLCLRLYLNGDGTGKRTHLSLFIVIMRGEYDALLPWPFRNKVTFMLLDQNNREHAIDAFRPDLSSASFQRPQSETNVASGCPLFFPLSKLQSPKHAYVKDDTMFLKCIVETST
# B5: E3 ubiquitin-protein ligase RNF31 (Homo sapiens), Q96EP0 (parent)
# chain: MPGEEEERAFLVAREELASALRRDSGQAFSLEQLRPLLASSLPLAARYLQLDAARLVRCNAHGEPRNYLNTLSTALNILEKYGRNLLSPQRPRYWRGVKFNNPVFRSTVDAVQGGRDVLRLYGYTEEQPDGLSFPEGQEEPDEHQVATVTLEVLLLRTELSLLLQNTHPRQQALEQLLEDKVEDDMLQLSEFDPLLREIAPGPLTTPSVPGSTPGPCFLCGSAPGTLHCPSCKQALCPACDHLFHGHPSRAHHLRQTLPGVLQGTHLSPSLPASAQPRPQSTSLLALGDSSLSSPNPASAHLPWHCAACAMLNEPWAVLCVACDRPRGCKGLGLGTEGPQGTGGLEPDLARGRWACQSCTFENEAAAVLCSICERPRLAQPPSLVVDSRDAGICLQPLQQGDALLASAQSQVWYCIHCTFCNSSPGWVCVMCNRTSSPIPAQHAPRPYASSLEKGPPKPGPPRRLSAPLPSSCGDPEKQRQDKMREEGLQLVSMIREGEAAGACPEEIFSALQYSGTEVPLQWLRSELPYVLEMVAELAGQQDPGLGAFSCQEARRAWLDRHGNLDEAVEECVRTRRRKVQELQSLGFGPEEGSLQALFQHGGDVSRALTELQRQRLEPFRQRLWDSGPEPTPSWDGPDKQSLVRRLLAVYALPSWGRAELALSLLQETPRNYELGDVVEAVRHSQDRAFLRRLLAQECAVCGWALPHNRMQALTSCECTICPDCFRQHFTIALKEKHITDMVCPACGRPDLTDDTQLLSYFSTLDIQLRESLEPDAYALFHKKLTEGVLMRDPKFLWCAQCSFGFIYEREQLEATCPQCHQTFCVRCKRQWEEQHRGRSCEDFQNWKRMNDPEYQAQGLAMYLQENGIDCPKCKFSYALARGGCMHFHCTQCRHQFCSGCYNAFYAKNKCPEPNCRVKKSLHGHHPRDCLFYLRDWTALRLQKLLQDNNVMFNTEPPAGARAVPGGGCRVIEQKEVPNGLRDEACGKETPAGYAGLCQAHYKEYLVSLINAHSLDPATLYEVEELETATERYLHVRPQPLAGEDPPAYQARLLQKLTEEVPLGQSIPRRRK
# B6: Coiled-coil domain-containing protein 120 (Homo sapiens), Q96HB5-4 (parent)
# chain: B1 chain
# partner: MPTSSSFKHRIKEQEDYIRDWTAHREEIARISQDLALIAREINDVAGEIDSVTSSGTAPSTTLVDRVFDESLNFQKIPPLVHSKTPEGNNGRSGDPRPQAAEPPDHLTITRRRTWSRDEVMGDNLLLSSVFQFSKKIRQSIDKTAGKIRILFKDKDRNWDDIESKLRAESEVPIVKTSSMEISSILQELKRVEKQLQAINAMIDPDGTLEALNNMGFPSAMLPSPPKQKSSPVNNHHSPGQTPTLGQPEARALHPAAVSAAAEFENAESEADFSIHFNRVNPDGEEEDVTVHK
# Variants of: B1
# Conditions: with cyh2_human CYTH2, Q99418
# cyh2_human CYTH2, Q99418, sequence (Q99418 whole entry): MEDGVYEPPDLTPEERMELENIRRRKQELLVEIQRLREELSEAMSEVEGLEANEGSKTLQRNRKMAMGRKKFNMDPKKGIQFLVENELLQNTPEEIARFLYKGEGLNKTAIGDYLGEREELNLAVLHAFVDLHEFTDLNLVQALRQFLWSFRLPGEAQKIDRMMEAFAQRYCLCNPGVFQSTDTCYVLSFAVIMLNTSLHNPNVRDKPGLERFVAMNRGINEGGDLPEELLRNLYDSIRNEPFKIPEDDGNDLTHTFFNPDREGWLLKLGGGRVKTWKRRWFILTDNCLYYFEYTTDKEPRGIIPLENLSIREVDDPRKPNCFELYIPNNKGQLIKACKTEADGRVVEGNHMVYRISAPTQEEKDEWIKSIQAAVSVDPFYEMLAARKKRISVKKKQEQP
row,effect of a mutation on the interaction,Variant
1,with no effect,R346W

# Variants of: B1
# Conditions: with mdfi_human MDFI
row,effect of a mutation on the interaction,Variant
1,with no effect,R346W

# Variants of: B1
# Conditions: with k1h1_human KRT31, Q15323
# k1h1_human KRT31, Q15323, sequence (Q15323 whole entry): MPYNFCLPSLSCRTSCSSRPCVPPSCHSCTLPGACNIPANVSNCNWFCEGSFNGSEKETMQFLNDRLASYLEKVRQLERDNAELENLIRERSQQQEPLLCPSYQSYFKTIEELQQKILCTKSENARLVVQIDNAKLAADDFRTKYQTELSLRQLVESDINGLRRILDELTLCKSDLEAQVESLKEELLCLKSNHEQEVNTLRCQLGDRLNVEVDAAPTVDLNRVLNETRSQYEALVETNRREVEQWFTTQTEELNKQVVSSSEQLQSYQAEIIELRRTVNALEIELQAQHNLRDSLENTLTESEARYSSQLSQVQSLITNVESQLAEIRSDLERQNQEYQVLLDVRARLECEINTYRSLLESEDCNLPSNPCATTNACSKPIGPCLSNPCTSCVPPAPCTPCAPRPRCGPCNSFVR
row,effect of a mutation on the interaction,Variant
1,with no effect,R346W

# Variants of: B1
# Conditions: with KRT15, P19012
# KRT15, P19012, sequence (P19012 whole entry): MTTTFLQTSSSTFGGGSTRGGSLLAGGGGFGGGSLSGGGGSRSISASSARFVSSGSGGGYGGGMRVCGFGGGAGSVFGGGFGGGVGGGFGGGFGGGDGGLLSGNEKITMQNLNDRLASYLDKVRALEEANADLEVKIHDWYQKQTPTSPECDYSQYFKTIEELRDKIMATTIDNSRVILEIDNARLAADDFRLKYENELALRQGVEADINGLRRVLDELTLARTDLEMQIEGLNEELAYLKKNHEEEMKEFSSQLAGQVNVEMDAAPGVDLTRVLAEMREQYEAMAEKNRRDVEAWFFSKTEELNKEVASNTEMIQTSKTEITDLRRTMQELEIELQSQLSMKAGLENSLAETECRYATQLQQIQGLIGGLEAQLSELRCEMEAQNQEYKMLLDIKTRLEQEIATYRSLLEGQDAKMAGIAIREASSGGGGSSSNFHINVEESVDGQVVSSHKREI
row,effect of a mutation on the interaction,Variant
1,with no effect,R346W

# Variants of: B2
# Conditions: with goga2_human GOLGA2, Q08379
row,effect of a mutation on the interaction,Variant
1,with no effect,R64H

# Variants of: B3
# Conditions: with cep70_human CEP70, Q8NHQ1
row,effect of a mutation on the interaction,Variant
1,disrupting interaction strength,C381Y

# Variants of: B4
# Conditions: with traf1_human TRAF1, Q13077
row,effect of a mutation on the interaction,Variant
1,with no effect,R346W

# Variants of: B5
# Conditions: with hoil1_human RBCK1, Q9BYM8
# hoil1_human RBCK1, Q9BYM8, sequence (Q9BYM8 whole entry): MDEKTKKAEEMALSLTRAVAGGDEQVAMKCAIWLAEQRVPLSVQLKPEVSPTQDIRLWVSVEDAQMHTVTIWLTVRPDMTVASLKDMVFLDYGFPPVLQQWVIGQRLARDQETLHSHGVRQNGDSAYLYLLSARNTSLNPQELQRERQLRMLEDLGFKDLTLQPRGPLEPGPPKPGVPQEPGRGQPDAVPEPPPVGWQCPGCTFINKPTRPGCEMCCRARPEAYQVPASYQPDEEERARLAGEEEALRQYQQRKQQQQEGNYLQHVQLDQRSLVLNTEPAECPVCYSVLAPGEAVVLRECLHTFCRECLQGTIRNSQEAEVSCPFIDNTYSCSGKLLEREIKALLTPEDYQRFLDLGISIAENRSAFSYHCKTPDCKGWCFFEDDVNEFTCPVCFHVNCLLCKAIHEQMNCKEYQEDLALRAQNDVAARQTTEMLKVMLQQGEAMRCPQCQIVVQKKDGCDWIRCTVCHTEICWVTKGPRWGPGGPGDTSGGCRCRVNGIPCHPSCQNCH
row,effect of a mutation on the interaction,Variant
1,with no effect,R646W

# Variants of: B5
# Conditions: with ccd24_human CCDC24, Q8N4L8
# ccd24_human CCDC24, Q8N4L8, sequence (Q8N4L8 whole entry): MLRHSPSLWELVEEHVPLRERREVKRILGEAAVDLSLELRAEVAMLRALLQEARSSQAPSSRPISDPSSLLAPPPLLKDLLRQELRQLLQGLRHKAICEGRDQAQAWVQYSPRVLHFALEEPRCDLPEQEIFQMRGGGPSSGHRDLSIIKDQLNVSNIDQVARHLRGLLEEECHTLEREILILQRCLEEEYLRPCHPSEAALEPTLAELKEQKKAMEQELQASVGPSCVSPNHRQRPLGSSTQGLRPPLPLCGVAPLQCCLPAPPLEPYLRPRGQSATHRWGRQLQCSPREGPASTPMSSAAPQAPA
row,effect of a mutation on the interaction,Variant
1,with no effect,R646W

# Variants of: B6
# Conditions: with CEP170P1, Q96L14
row,effect of a mutation on the interaction,Variant
1,with no effect,R346W
